Data as given in US20260234245A1 (ELTHERA, published 2026).

Tests used:
[1] = molecular target: T1, recombinant hexahistidine-tagged human CHL1 (human, UniProt O00533 25-1082, limits assumed); experiment: direct ELISA on plate-coated human CHL1-His, HRP goat anti-mouse detection
T1 construct: Hexahistidine-tagged; also called plate-coated human CHL1; close homolog of L1 (CHL1)
T1 sequence (looked up): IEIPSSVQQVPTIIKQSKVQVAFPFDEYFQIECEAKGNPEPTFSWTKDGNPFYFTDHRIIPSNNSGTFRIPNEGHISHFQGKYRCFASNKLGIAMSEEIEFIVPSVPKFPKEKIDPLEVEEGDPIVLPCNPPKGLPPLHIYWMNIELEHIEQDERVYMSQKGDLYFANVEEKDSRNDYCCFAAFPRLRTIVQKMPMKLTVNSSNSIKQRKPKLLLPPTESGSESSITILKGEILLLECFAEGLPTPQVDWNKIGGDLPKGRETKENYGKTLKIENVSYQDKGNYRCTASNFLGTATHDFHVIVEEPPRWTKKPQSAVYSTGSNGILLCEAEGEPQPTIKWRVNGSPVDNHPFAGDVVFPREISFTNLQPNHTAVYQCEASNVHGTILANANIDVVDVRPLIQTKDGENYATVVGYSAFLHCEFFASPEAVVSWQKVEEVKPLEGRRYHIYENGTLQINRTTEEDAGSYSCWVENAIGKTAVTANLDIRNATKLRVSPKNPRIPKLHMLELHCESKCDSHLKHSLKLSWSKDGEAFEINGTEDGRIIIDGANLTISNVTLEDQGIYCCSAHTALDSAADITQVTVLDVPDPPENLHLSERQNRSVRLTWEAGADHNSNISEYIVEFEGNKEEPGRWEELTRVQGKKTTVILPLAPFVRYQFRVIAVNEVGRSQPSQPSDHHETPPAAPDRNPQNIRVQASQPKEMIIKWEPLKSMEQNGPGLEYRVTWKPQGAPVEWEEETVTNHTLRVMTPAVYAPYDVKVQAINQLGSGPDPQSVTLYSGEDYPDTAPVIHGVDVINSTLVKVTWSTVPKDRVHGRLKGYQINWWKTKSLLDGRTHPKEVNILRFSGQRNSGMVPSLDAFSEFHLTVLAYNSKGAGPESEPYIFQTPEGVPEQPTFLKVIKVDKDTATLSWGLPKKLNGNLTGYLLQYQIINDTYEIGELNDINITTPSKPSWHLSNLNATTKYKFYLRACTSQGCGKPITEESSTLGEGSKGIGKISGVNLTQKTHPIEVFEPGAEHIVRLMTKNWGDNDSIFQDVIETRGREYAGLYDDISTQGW
Protocol: (§1) Recombinant human L1CAM-human Fc and human NrCAM-human Fc fusion proteins, as well as recombinant hexahistidine-tagged versions of human CHL1 and Neurofascin, respectively, were added to ELISA plates at a concentration of 1 μg/mL in 50 mM carbonate buffer pH 9.6 (100 μL per well). Plates were incubated overnight at 4° C., washed 5 times with PBS/0.05% Tween, and blocked by the addition of 200 μL per well PBS/0.05% Tween/1% Bovine serum albumin (BSA). […] As positive controls the same dilution series were prepared for commercial mouse antibodies directed against L1CAM (clone UJ127.11, NovusBio), human NrCAM (clone 308000, Creative Diagnostics), human CHL1 (clone 6E6E4, Sino Biological) and human Neurofascin (clone 727030, R&D systems). Plates were washed 5 times with PBS/0.05% Tween, and 100 μL per well of the antibody dilution series were added to the plates. After an incubation for 1 hour at room temperature, plates were washed again and 100 μL per well of a horse-radish peroxidase conjugated polyclonal goat anti-mouse antibody (diluted 1:1000 in PBS/0.05% Tween/1% BSA) was added. […] After an incubation of 8 minutes at room temperature, reactions were stopped by the addition of 50 μL per well 0.16 M H₂SO₄, and absorption at 450 nm was determined in a microplate reader.

[2] = molecular target: T2, recombinant hexahistidine-tagged human Neurofascin (human, UniProt O94856 25-1217, limits assumed); experiment: direct ELISA on plate-coated human Neurofascin-His, HRP goat anti-mouse detection
T2 construct: Hexahistidine-tagged; also called plate-coated human Neurofascin
T2 sequence (looked up): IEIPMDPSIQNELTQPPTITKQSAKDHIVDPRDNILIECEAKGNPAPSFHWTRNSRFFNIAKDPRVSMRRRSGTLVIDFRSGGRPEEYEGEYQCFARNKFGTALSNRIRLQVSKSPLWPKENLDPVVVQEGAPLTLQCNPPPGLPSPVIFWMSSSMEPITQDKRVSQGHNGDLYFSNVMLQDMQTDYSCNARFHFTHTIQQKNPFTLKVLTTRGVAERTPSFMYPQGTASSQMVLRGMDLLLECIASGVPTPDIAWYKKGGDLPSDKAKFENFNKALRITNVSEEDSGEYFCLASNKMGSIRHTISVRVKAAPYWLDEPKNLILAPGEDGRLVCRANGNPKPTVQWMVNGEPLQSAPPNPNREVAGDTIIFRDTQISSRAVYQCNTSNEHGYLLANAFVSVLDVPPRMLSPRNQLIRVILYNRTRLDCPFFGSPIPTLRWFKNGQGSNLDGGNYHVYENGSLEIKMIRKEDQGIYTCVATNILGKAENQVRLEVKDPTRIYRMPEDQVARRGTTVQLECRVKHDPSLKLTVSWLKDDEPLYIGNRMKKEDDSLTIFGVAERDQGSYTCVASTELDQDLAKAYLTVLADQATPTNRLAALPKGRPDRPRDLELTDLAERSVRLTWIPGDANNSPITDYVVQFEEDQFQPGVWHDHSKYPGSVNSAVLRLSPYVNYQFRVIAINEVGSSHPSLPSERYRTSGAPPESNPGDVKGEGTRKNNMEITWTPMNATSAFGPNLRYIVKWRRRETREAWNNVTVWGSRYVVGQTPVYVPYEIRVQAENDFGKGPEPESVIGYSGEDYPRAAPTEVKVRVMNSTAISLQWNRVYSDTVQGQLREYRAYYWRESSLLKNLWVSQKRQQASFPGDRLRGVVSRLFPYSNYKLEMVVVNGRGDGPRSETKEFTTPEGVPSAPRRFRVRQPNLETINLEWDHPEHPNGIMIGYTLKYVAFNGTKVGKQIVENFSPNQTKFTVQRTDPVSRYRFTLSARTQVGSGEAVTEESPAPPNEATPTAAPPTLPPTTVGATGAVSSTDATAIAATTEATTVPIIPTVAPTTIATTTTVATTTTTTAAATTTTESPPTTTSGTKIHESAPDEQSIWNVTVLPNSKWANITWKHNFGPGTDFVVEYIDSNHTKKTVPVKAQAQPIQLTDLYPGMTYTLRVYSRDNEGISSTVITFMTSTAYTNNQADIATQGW
Protocol: as §1

[3] = molecular target: T3, recombinant human NrCAM-human Fc fusion protein (human, UniProt Q92823 25-1167, limits assumed); experiment: direct ELISA on plate-coated human NrCAM (panel titled 'human NrCAM-His'; the text calls it an NrCAM-human Fc fusion), HRP goat anti-mouse detection
T3 construct: also called plate-coated human NrCAM; Neuronal cell adhesion molecule (NrCAM)
Protocol: as §1

Measured: binding result

T3 sequence (Q92823 25-1167 limits assumed): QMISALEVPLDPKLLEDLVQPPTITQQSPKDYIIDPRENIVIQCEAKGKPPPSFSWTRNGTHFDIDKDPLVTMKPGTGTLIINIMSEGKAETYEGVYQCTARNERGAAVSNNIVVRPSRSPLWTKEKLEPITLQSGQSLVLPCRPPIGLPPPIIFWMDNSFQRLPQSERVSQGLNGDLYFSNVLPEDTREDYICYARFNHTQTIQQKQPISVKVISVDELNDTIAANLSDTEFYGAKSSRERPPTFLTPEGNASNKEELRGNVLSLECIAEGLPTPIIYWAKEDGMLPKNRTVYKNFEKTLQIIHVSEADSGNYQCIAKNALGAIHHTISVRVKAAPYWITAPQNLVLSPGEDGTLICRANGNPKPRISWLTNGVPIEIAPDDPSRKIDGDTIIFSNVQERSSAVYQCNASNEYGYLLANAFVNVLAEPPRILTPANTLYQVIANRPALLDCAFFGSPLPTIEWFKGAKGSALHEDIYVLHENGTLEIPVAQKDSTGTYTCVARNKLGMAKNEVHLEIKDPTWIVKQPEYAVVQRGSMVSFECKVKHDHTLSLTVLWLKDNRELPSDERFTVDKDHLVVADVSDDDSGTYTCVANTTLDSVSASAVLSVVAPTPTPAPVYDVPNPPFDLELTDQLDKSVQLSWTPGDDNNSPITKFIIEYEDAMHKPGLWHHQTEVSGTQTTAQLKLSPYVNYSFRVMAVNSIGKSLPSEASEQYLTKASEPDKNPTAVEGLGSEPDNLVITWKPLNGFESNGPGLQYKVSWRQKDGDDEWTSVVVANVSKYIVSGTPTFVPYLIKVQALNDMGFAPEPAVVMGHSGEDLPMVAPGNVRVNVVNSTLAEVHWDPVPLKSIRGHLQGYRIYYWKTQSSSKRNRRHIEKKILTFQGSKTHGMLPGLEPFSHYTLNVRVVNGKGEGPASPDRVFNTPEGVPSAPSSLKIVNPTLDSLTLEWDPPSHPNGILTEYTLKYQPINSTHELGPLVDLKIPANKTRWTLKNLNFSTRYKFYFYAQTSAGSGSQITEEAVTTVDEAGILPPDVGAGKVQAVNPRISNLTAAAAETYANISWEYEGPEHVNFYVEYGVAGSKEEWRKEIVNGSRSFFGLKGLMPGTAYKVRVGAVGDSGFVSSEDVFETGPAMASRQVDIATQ

B1: OV549.20 mouse IgG2a (antibody, V domains shown)
VH: DVQLQESGPGLVKPSQSLSLTCTVTGYSITSDYAWNWIRQFPGNKVEWMGYISYSGSFSYHPSLKSRISITRDTSKNQFFLQLSSVTTEDTATYYCARSFSYGYGFAYWGQGTLVTVSS
VL: DIVMTQSHKFMSTSVGDRVNITCKASQDVSSAVAWYQQKPGQSPKLLIYSASYRYTGVPDHFTGSGSGTDFTFTISSVQAEDLAVYYCQQHYSTPWTFGGGTKLEIKR
modifications: N-glycosylation motif Asn-Ile-Thr in the variable region; glycosylated and non-glycosylated light chain forms present
notes: Recombinant mouse IgG2a expressed in CHO K1 cells; also called OV549.20 (murine); mAb OV549.20
no binding (tested: 1 µg/mL): all assays above
